Here are results for three molecules from patent US20200093866A1, “Use of selected single cobrotoxin molecule as an analgesic” (priority 2018, published 2020).

A short description of data set [1]: Quantitative microdialysis of unbound brain extracellular fluid (bECF) concentration after IV injection. Type of data set: in vivo, rat. Conditions: rats, 125I-labeled, 120 μg, dialysate over 360 minutes, FIG. 4. The text has this:
The estimated molecular weights of Chain A, Cobrotoxin, Chain A, Cobrotoxin B are 6.9±0.6 KDa; the estimated molecular weights of a cobrotoxins complexes extracted from crude venom ranged from approximately 6.5 KDa to 15 KDa. Quantitative microdialysis (QMD) is used to determine the absolute unbound brain extracellular fluid (bECF) concentration of Chain A, Cobrotoxin, Chain A, Cobrotoxin B, and the cobrotoxins complexes. QMD is the only technique that enables sampling of bECF in conscious animals and provides direct evidence of exposure at extracellular target sites (Kielbasa and Stratford, Jr. 2015)
QMD consists of implanting a probe in rat (FIG.-3). The membrane of the probe will allow the exchange of perfusate with bECF, so the concentration of Chain A, Cobrotoxin, Chain A, Cobrotoxin B, and a cobrotoxins complexes in bECF could be measured through dialysate. […] In response, an in vivo recovery rate test of the probe (MD-2200) was performed on 125I-labeled Chain A, Cobrotoxin, Chain A, Cobrotoxin B, and a cobrotoxins complexes, each with three different concentrations of 5, 25, and 50 ng/ml as perfusate, with a flow rate of 2 μL/min was perfused through the probe. During microdialysis, the dialysate was collected every 10 minutes for an hour, then tested using SN629B-radioimmunoassay counter to calculate cpm. […] The recovery rate (by loss) % was calculated as: […]

Data set [2] concerns Kunming mice. In words: Acetic acid writhing test, parenteral (iv) injection. As to conditions: for inhibitory rate of mice writhing / time at which analgesic effect started: 60 μg/kg iv; for inhibitory rate of mice writhing: 90 minutes after administration; for time at which analgesic effect started / frequency of writhing induced by acetic acid / ED50 of the anti-nociceptive effect of acetic acid induced writhing: mice; for frequency of writhing induced by acetic acid: 30, 45 or 60 μg/kg iv; for ED50 of the anti-nociceptive effect of acetic acid induced writhing: iv. The data set is classed as in vivo. The procedure: Writhing test for the evaluation of analgesic effect by parenteral injection The writhing test is a chemical method used to induce pain of peripheral origin by injection of irritant principles like acetic acid in mice. Analgesic effect of the test compound is inferred from the decrease in the frequency of writhing.
METHOD: A total number of 60 Kunming mice were used, 10 per group, with a weight of 20±2 g. […] At dose of 60 μg/kg (iv), The analgesic effect started at 30 minutes, and could reach 60˜70% inhibitory rate of mice writhing at 90 minutes after administration. The ED50 of the anti-nociceptive effect of acetic acid induced writhing was 40˜50 μg/kg in the writhing test for Chain A, Cobrotoxin and Chain A, Cobrotoxin B.
(Writhing tests count abdominal constrictions after an irritant is injected.)

The next data set relates to Wistar rats. In words: Tail flick test (thermal radiation), Periaqueductal Gray injection. The data set is classed as in vivo. As to conditions: PAG injection; for latency induced by thermal radiation (tail flick): 1.5, 3.0 and 6.0 μg/kg; for time at which analgesic effect appeared / time at which analgesic effect peaked: after drug administration; for maximum increase of pain threshold: tail flick. The procedure:
Most commonly, an intense light beam is focused on the animal's tail and a timer starts. When the animal flicks its tail, the timer stops and the recorded time (latency) is a measure of the pain threshold.
METHODS: Periaqueductal Gray (PAG) was injected with selected cobrotoxin molecule in rats, and the central analgesic effect was evaluated by the tail flick due to thermal radiation. 20 Wistar rats with a weight of 200±20 g were divided into 2 groups, 10 per group. […] The analgesic effect of Chain A, Cobrotoxin and Chain A, Cobrotoxin B appeared in 10˜15 minutes and peaked at 25˜30 minutes after drug administration. The maximum increase of pain threshold was over 200%.
(In general: In hot-plate and tail-flick tests a longer latency is read as antinociception.)

The subject of data set [3] is Kunming mice. Description: Respiratory inhibition test. The data set is classed as in vivo. As to conditions: effective dose of 60 μg/kg, 10 Kunming mice. An excerpt: 4) Respiratory inhibition test Chain A, Cobrotoxin and Chain A, Cobrotoxin B were separately administered to 10 Kunming mice of 20±2 g.
A further data set deals with T1, nAChR (Rattus norvegicus, UniProt P09660+P25108+P25110).
T1 construct: nAChR crude extract from rat skeletal muscle; from tissue; host or cells: rat skeletal muscle (crude extract)
T1 sequence (P25108 21-457): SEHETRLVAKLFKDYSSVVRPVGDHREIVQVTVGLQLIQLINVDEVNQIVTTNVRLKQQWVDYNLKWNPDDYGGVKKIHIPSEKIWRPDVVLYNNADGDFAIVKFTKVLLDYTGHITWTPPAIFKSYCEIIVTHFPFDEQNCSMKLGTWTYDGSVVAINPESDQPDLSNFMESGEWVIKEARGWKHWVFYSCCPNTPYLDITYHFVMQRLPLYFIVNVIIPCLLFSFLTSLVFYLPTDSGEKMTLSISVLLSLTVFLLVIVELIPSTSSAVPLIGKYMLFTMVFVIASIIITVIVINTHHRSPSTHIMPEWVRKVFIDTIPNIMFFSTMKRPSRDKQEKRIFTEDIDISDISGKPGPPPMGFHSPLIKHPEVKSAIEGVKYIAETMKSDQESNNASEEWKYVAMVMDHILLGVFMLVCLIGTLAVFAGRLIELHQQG
T1 sequence (P25110 22-517): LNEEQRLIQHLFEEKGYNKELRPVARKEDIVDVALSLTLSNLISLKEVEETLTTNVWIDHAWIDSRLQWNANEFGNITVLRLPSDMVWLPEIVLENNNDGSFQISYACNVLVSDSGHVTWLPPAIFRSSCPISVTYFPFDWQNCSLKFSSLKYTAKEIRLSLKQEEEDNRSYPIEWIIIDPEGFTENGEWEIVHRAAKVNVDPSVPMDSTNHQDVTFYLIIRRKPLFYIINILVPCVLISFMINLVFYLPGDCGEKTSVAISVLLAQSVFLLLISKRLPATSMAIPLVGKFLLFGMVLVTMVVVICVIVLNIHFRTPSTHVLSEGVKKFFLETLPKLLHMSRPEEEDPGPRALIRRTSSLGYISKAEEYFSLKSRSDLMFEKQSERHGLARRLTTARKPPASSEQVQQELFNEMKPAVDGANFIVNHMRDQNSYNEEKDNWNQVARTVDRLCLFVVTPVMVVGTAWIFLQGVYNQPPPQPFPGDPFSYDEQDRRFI
T1 sequence (P09660 21-494): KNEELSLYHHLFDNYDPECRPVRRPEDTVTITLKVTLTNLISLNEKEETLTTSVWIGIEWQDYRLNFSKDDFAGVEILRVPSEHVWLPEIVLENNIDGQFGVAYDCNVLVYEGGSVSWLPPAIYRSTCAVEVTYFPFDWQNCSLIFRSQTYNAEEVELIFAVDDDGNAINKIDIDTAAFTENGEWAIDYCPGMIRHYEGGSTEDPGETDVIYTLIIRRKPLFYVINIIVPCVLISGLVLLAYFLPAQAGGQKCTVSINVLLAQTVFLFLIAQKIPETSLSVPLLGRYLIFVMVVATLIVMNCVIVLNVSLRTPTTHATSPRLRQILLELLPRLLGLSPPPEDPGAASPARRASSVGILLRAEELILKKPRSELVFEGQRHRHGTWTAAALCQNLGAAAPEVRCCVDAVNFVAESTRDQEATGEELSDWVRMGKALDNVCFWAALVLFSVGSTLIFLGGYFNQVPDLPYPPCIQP
T1 sequence (P25109 24-501 partner): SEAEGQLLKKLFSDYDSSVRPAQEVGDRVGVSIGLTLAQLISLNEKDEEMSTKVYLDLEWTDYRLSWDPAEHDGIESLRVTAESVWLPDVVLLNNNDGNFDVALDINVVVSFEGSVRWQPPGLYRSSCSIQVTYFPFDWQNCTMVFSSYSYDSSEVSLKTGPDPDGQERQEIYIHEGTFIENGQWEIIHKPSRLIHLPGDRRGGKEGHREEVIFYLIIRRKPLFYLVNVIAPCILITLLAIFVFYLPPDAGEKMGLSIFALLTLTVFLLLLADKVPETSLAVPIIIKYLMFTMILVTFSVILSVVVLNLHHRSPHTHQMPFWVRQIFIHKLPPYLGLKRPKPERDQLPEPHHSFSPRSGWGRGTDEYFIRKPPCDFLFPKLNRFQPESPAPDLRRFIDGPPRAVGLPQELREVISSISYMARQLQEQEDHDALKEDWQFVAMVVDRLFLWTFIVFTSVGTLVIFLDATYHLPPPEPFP
Description: 125I labeled-αBtx-nAChR binding inhibition test (radio-immunoprecipitation). As to conditions: nAChR crude extract from rat skeletal muscle; approximate. The text has this:
As shown in FIG.-2, a total of 12 fractions from the aforementioned ion-exchange chromatography were further desalted and purified by a reverse-phase HPLC (RP-HPLC) with Vydac RP-C18 (4.6×250 mm, 5.0 um). Fractions A and B were identified as high-affinity cobrotoxins with enhanced binding ability to nAChR in a later 125I labeled-αBtx-nAChR binding inhibition test. • 2) Screening and selection of single cobrotoxin molecule with high affinity binding to nAChR for better drug target engagement The 125I labeled-α-bungarotoxin(αBtx)-nAChR binding inhibition test was performed to evaluate the affinities of different cobrotoxins molecules. […] Higher the affinity of cobrotoxin with nAChR, greater the inhibitory rate toward α-bungarotoxin's binding to nAChR. In our radio-immunoprecipitation test, only nAChR bonded α-bungarotoxin will be precipitated with nicotinic acetylcholine antibody (mAb 35) and Rabbit Anti-Rat IgG, whilst unbounded α-bungarotoxin will be washed out. By testing the concentration of bonded α-bungarotoxin, we can determine the inhibitory rates of different cobrotoxins molecules isolated in step 1).
Calculation of “125I-αBtx-nAChR binding inhibitory rate (%)” […]
The 125I-αBtx-nAChR binding inhibition experiment process is performed and described in following sequence: • i. […] The (Bq) value per second was measured using the gamma radioimmunoassay counter.

Data set [4] concerns Kunming mice. In words: Acetic acid writhing test, nasal administration. The data set is classed as in vivo. Conditions: for frequency of writhing induced by acetic acid: 30, 45 or 60 μg/kg nasal; for frequency of writhing induced by acetic acid / ED50 of the anti-nociceptive effect of acetic acid induced writhing / time at which analgesic effect started: mice; for duration of analgesic effect / ED50 of the anti-nociceptive effect of acetic acid induced writhing / time at which analgesic effect started: nasal administration; for duration of analgesic effect: after drug administration. The procedure: Writhing test for the evaluation of analgesic effect by nasal administration METHOD: A total number of 60 Kunming mice were used, 10 per group, with a weight of 20±2 g. […] The analgesic effect started at 30 minutes and lasted at least for 6 hours after drug administration.

The test system of data set [5] is Kunming mice. In words: Acetic acid writhing test, oral administration. Conditions: for frequency of writhing induced by acetic acid: 160, 320 or 480 μg/kg oral; for ED50 of the anti-nociceptive effect of acetic acid induced writhing: oral administration. Type of data set: in vivo. The text has this:
Writhing test for the evaluation of analgesic effect by oral administration METHOD: A total number of 60 Kunming mice were used, 10 per group, with a weight of 20±2 g.

The test system of another data set is mice. As to conditions: i.c.v. injection, mice (Chen and Robinson, 1990); cited from earlier work.

As for Chain A, Cobrotoxin B, in data set [1], the “time course of reaching bECF brain concentration versus cobrotoxins complexes” value is listed as “always ahead of the cobrotoxins complexes in reaching a specific concentration”. Besides, in the data set on Kunming mice [2], the “inhibitory rate of mice writhing” value is reported as 60˜70%, the “time at which analgesic effect started” value stood at 30 min, the “frequency of writhing induced by acetic acid” value (shortened to “frequency of writhing induced”) is “dose-dependent decrease” and the “ED50 of the anti-nociceptive effect of acetic acid induced writhing” value (“ED50 … of acetic acid induced writhing” for short) is listed as 40˜50 μg/kg. For the same molecule, in the data set with Wistar rats, the “latency induced by thermal radiation (tail flick)” value was “dose-dependent increase”, the “ED50 of the antinociceptive effect of thermal radiation-induced tail flick” value is given as 3.3˜4.0 μg/kg, the “time at which analgesic effect appeared” value is on record as 10˜15 minutes and the “time at which analgesic effect peaked” value is on record as 25˜30 minutes. For the same molecule, in the data set with Wistar rats, the “maximum increase of pain threshold” value was “over 200%”. Also, the respiratory inhibition result in the data set on Kunming mice [3] is “No respiratory inhibition was observed”. Moreover, the “125I-αBtx-nAChR binding inhibitory rate” value on nAChR was 40%-50%. In addition, in the data set on Kunming mice [4], the “frequency of writhing induced” value is recorded as “dose-dependent decrease”, the “duration of analgesic effect” value was at least 6 h, the “ED50 … of acetic acid induced writhing” value is listed as 38˜46 μg/kg and the “time at which analgesic effect started” value was 30 min. Besides, in the data set on Kunming mice [5], the “frequency of writhing induced” value is reported as “dose-dependent decrease” and the “ED50 … of acetic acid induced writhing” value is 300˜350 μg/kg.

B1: cobrotoxin (protein, UniProt P60770 22-83, looked up)
Cobrotoxin: LECHNQQSSQTPTTTGCSGGETNCYKKRWRDHRGYRTERGCGCPSVKNGIEINCCTTDRCNN
On to B1, for which the “antinociceptive response in tail-flick test” value in the data set with mice is reported as “produced an antinociceptive response”.

B2: Chain A, Cobrotoxin (protein, UniProt P60770 22-83, looked up)
Cobrotoxin: B1 Cobrotoxin
Take B2: the “time course of reaching bECF brain concentration versus cobrotoxins complexes” value in data set [1] is on record as “always ahead of the cobrotoxins complexes in reaching a specific concentration”. Besides, in the data set with Kunming mice [2], the “inhibitory rate of mice writhing” value is reported as 60˜70%, the “time at which analgesic effect started” value was 30 min, the “frequency of writhing induced” value is listed as “dose-dependent decrease” and the “ED50 … of acetic acid induced writhing” value is on record as 40˜50 μg/kg. Further, in the data set on Wistar rats, the “latency induced by thermal radiation (tail flick)” value is “dose-dependent increase”, the “ED50 of the antinociceptive effect of thermal radiation-induced tail flick” value was 3.3˜4.0 μg/kg, the “time at which analgesic effect appeared” value is reported as 10˜15 minutes and the “time at which analgesic effect peaked” value is on record as 25˜30 minutes. Moreover, the “maximum increase of pain threshold” value with Wistar rats is reported as “over 200%”. Besides, the respiratory inhibition result in the data set on Kunming mice [3] was “No respiratory inhibition was observed”. For the same molecule, the “125I-αBtx-nAChR binding inhibitory rate” value with nAChR is reported as 40%-50%. In the data set with Kunming mice [4], the “frequency of writhing induced” value is “dose-dependent decrease”, the “duration of analgesic effect” value was at least 6 h, the “ED50 … of acetic acid induced writhing” value was 38˜46 μg/kg and the “time at which analgesic effect started” value was 30 min. In the data set with Kunming mice [5], the “frequency of writhing induced” value is recorded as “dose-dependent decrease” and the “ED50 … of acetic acid induced writhing” value is recorded as 300˜350 μg/kg.
